Assay results from IntAct's records for PubMed 29039417.

B1: Isoform 2 of Bardet-Biedl syndrome 7 protein (Homo sapiens), Q8IWZ6-2 (parent)
chain: MDLILNRMDYLQVGVTSQKTMKLIPASRHRATQKVVIGDHDGVVMCFGMKKGEAAAVFKTLPGPKIARLELGGVINTPQEKIFIAAASEIRGFTKRGKQFLSFETNLTESIKAMHISGSDLFLSASYIYNHYCDCKDQHYYLSGDKINDVICLPVERLSRITPVLACQDRVLRVLQGSDVMYAVEVPGPPTVLALHNGNGGDSGEDLLFGTSDGKLALIQITTSKPVRKWEIQNEKKRGGILCIDSFDIVGDGVKDLLVGRDDGMVEVYSFDNANEPVLRFDQMLSESVTSIQGGCVGKDSYDEIVVSTYSGWVTGLTTEPIHKESGPGEELKINQEMQNKISSLRNELEHLQYKVLQERENYQQSSQSSKAKSAVPSFGINDKFTLNKDDASYSLILEVQTAIDNVLIQSDVPIDLLDVDKNSAVVSFSSCDSESNDNFLLATYRCQADTTRLELKIRSIEGQYGTLQAYVTPRIQPKTCQVRQYHIKPLSLHQRTHFIDHDRPMNTLTLTGQFSFAEVHSWVVFCLPEVPEKPPAGECVTFYFQNTFLDTQLESTYRKGEGVFKSDNISTISILKDVLSKEATKRKINLNISYEINEVSVKHTLKLIHPKLEYQLLLAKKVQLIDALKELQIHEGNTNFLIPEYHCILEEADHLQEEYKKQPAHLERLYG
partner: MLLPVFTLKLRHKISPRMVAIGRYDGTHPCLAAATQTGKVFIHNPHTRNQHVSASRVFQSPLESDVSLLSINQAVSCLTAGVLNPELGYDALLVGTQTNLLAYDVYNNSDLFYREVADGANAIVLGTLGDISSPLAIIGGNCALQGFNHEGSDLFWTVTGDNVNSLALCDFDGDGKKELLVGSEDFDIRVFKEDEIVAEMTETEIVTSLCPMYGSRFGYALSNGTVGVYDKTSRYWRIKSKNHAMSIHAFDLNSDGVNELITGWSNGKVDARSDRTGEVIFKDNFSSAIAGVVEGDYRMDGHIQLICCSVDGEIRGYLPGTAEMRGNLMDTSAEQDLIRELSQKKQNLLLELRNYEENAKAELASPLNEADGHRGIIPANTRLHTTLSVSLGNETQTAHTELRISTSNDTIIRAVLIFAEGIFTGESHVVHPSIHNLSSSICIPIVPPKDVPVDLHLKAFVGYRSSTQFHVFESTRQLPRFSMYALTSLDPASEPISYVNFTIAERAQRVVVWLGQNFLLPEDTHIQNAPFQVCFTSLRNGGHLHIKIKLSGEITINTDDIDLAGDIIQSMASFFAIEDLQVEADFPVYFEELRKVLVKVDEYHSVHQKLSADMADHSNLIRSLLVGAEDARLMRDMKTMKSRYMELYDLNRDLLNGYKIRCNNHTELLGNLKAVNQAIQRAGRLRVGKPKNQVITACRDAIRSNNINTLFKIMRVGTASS

Variants of: B1
Details: with bbs2_human BBS2, Q9BXC9

Row | effect of a mutation on the interaction | Variant
1 | with no effect | Y394E
2 | with no effect | Y394K
3 | with no effect | Y394A
4 | with no effect | F385E
5 | with no effect | F385K
6 | with no effect | S393K
7 | with no effect | S393A
8 | with no effect | S393E
9 | with no effect | L396E
10 | with no effect | L396K
11 | disrupting interaction strength | L396P
12 | with no effect | L396A
13 | with no effect | K389A
14 | with no effect | K389E
15 | with no effect | D390A
16 | with no effect | D390E
17 | with no effect | D390K
18 | with no effect | N388E
19 | with no effect | N388A
20 | with no effect | N388K
21 | with no effect | A403E
22 | with no effect | L398E
23 | with no effect | L398K
24 | with no effect | L398A
25 | with no effect | T402K
26 | with no effect | T402E
27 | with no effect | T402A

Row | effect of a mutation on the interaction | Variant
28 | with no effect | L387A
29 | with no effect | L387K
30 | with no effect | L387E
31 | with no effect | V400A
32 | with no effect | V400E
33 | with no effect | V400K
34 | with no effect | Q401K
35 | with no effect | Q401A
36 | with no effect | Q401E
37 | with no effect | S395A
38 | with no effect | S395E
39 | with no effect | S395K
40 | with no effect | A392E
41 | with no effect | A392K
42 | with no effect | D391A
43 | with no effect | D391K
44 | with no effect | D391E
45 | with no effect | T386K
46 | with no effect | T386E
47 | with no effect | T386A
48 | with no effect | I397A
49 | with no effect | I397E
50 | with no effect | I397K
51 | disrupting interaction strength | E399V
52 | with no effect | E399A
53 | with no effect | E399K

Second part, the variant before the results:

Row | Variant | effect of a mutation on the interaction
54 | A372E | with no effect
55 | A372K | with no effect
56 | S378K | with no effect
57 | S378E | with no effect
58 | S378A | with no effect
59 | V376I | disrupting interaction strength
60 | V376K | with no effect
61 | V376E | with no effect
62 | V376A | with no effect
63 | F385A | with no effect
64 | S374K | with no effect
65 | S374A | with no effect
66 | S374E | with no effect
67 | I381K | with no effect
68 | I381A | with no effect
69 | I381E | with no effect
70 | K371A | with no effect
71 | K371E | with no effect
72 | G380K | with no effect
73 | G380A | with no effect

Row | Variant | effect of a mutation on the interaction
74 | G380E | with no effect
75 | K384E | with no effect
76 | K384A | with no effect
77 | P377K | with no effect
78 | P377E | with no effect
79 | P377A | with no effect
80 | N382K | with no effect
81 | N382E | with no effect
82 | N382A | with no effect
83 | K373A | with no effect
84 | K373E | with no effect
85 | S370K | with no effect
86 | F379K | with no effect
87 | F379E | with no effect
88 | F379A | with no effect
89 | A375K | with no effect
90 | A375E | with no effect
91 | D383E | with no effect
92 | D383A | with no effect
93 | D383K | with no effect
